Measured values published in ChEMBL document CHEMBL3525932, “Comparison of metabolism of sesamin and episesamin by drug-metabolizing enzymes in human liver” (Drug Metab Dispos, 2012).

What was measured:
[1] = substrate: [H][C@]12CO[C@H](c3ccc4c(c3)OCO4)[C@@]1([H])CO[C@@H]2c1ccc(O)c(O)c1; assay: Activity of recombinant human CYP2C19 expressed in Saccharomyces cerevisiae AH22 cells assessed as enzyme-mediated sesamin dicatechol formation after 15 mins by HPLC analysis in presence of NADPH; type: ADME, cell-based
[2] = substrate: [H][C@]12CO[C@@H](c3ccc4c(c3)OCO4)[C@@]1([H])CO[C@@H]2c1ccc(O)c(O)c1; assay: (§1) Activity of recombinant human CYP2C19 expressed in Saccharomyces cerevisiae AH22 cells assessed as enzyme-mediated episesamin dicatechol formation after 15 mins by HPLC analysis in presence of NADPH; type: ADME, cell-based
[3] = substrate: [H][C@]12CO[C@@H](c3ccc(O)c(O)c3)[C@@]1([H])CO[C@@H]2c1ccc2c(c1)OCO2; assay: as §1; type: ADME, cell-based
[4] = substrate: c1cc2c(cc1[C@H]1OC[C@H]3[C@@H]1CO[C@@H]3c1ccc3c(c1)OCO3)OCO2; assay: Activity of recombinant human CYP1A2 expressed in Saccharomyces cerevisiae AH22 cells assessed as enzyme-mediated sesamin monocatecholization after 15 mins by Michaelis-Menten plot analysis in presence of NADPH; type: ADME, cell-based
[5] = substrate: [H][C@]12CO[C@@H](c3ccc4c(c3)OCO4)[C@@]1([H])CO[C@@H]2c1ccc(O)c(O)c1; assay: (§2) Drug metabolism in human liver cytosol assessed as COMT-mediated methylation after 10 to 30 mins by HPLC analysis in presence of SAM; type: ADME
[6] = substrate: [H][C@]12CO[C@H](c3ccc4c(c3)OCO4)[C@@]1([H])CO[C@@H]2c1ccc(O)c(O)c1; assay: as §2; type: ADME
[7] = substrate: [H][C@]12CO[C@@H](c3ccc(O)c(O)c3)[C@@]1([H])CO[C@@H]2c1ccc2c(c1)OCO2; assay: as §2; type: ADME
[8] = substrate: [H][C@]12CO[C@@H](c3ccc4c(c3)OCO4)[C@@]1([H])CO[C@@H]2c1ccc(O)c(O)c1; assay: (§3) Drug metabolism in Sprague-Dawley rat liver cytosol assessed as COMT-mediated methylation after 10 to 30 mins by HPLC analysis in presence of SAM; type: ADME
[9] = substrate: [H][C@]12CO[C@H](c3ccc4c(c3)OCO4)[C@@]1([H])CO[C@@H]2c1ccc(O)c(O)c1; assay: as §3; type: ADME
[10] = substrate: [H][C@]12CO[C@@H](c3ccc(O)c(O)c3)[C@@]1([H])CO[C@@H]2c1ccc2c(c1)OCO2; assay: as §3; type: ADME
[11] = substrate: c1cc2c(cc1[C@H]1OC[C@H]3[C@@H]1CO[C@@H]3c1ccc3c(c1)OCO3)OCO2; assay: Activity of recombinant human CYP2C9 expressed in Saccharomyces cerevisiae AH22 cells assessed as enzyme-mediated sesamin monocatecholization after 15 mins by Michaelis-Menten plot analysis in presence of NADPH; type: ADME, cell-based

B1: Cytochrome P450 2C19 (Homo sapiens) (protein)
chain: MDPFVVLVLCLSCLLLLSIWRQSSGRGKLPPGPTPLPVIGNILQIDIKDVSKSLTNLSKIYGPVFTLYFGLERMVVLHGYEVVKEALIDLGEEFSGRGHFPLAERANRGFGIVFSNGKRWKEIRRFSLMTLRNFGMGKRSIEDRVQEEARCLVEELRKTKASPCDPTFILGCAPCNVICSIIFQKRFDYKDQQFLNLMEKLNENIRIVSTPWIQICNNFPTIIDYFPGTHNKLLKNLAFMESDILEKVKEHQESMDINNPRDFIDCFLIKMEKEKQNQQSEFTIENLVITAADLLGAGTETTSTTLRYALLLLLKHPEVTAKVQEEIERVIGRNRSPCMQDRGHMPYTDAVVHEVQRYIDLIPTSLPHAVTCDVKFRNYLIPKGTTILTSLTSVLHDNKEFPNPEMFDPRHFLDEGGNFKKSNYFMPFSAGKRICVGEGLARMELFLFLTFILQNFNLKSLIDPKDLDTTPVVNGFASVPPFYQLCFIPV
**Q.** What does the source list for B1?
**A.** Km [1]: 5.1 µM; kcat [1]: 0.233 s⁻¹; Km [2]: 7.3 µM; kcat [2]: 0.25 s⁻¹; Km [3]: 7.3 µM; kcat [3]: 0.25 s⁻¹

B2: Cytochrome P450 1A2 (Homo sapiens) (protein)
chain: MALSQSVPFSATELLLASAIFCLVFWVLKGLRPRVPKGLKSPPEPWGWPLLGHVLTLGKNPHLALSRMSQRYGDVLQIRIGSTPVLVLSRLDTIRQALVRQGDDFKGRPDLYTSTLITDGQSLTFSTDSGPVWAARRRLAQNALNTFSIASDPASSSSCYLEEHVSKEAKALISRLQELMAGPGHFDPYNQVVVSVANVIGAMCFGQHFPESSDEMLSLVKNTHEFVETASSGNPLDFFPILRYLPNPALQRFKAFNQRFLWFLQKTVQEHYQDFDKNSVRDITGALFKHSKKGPRASGNLIPQEKIVNLVNDIFGAGFDTVTTAISWSLMYLVTKPEIQRKIQKELDTVIGRERRPRLSDRPQLPYLEAFILETFRHSSFLPFTIPHSTTRDTTLNGFYIPKKCCVFVNQWQVNHDPELWEDPSEFRPERFLTADGTAINKPLSEKMMLFGMGKRRCIGEVLAKWEIFLFLAILLQQLEFSVPPGVKVDLTPIYGLTMKHARCEHVQARLRFSIN
**Q.** With B2 as the protein, how does the Km [4] read?
**A.** Its Km is 15 µM.

**Q.** And the kcat [4]?
**A.** Its kcat is 0.0833 s⁻¹.

**Q.** What about the kcat/Km [4] of the same protein?
**A.** Its kcat/Km is 5500 M⁻¹ s⁻¹.

B3: Catechol O-methyltransferase (Homo sapiens) (protein)
chain: MPEAPPLLLAAVLLGLVLLVVLLLLLRHWGWGLCLIGWNEFILQPIHNLLMGDTKEQRILNHVLQHAEPGNAQSVLEAIDTYCEQKEWAMNVGDKKGKIVDAVIQEHQPSVLLELGAYCGYSAVRMARLLSPGARLITIEINPDCAAITQRMVDFAGVKDKVTLVVGASQDIIPQLKKKYDVDTLDMVFLDHWKDRYLPDTLLLEECGLLRKGTVLLADNVICPGAPDFLAHVRGSSCFECTHYQSFLEYREVVDGLEKAIYKGPGSEAGP
**Q.** Which results are given for B3?
**A.** Km [5]: 2.4 µM; Vmax [5]: 0.00059 µmol/min; Km [6]: 5.6 µM; Vmax [6]: 0.0013 µmol/min; Km [7]: 2.5 µM; Vmax [7]: 0.00071 µmol/min

B4: Catechol O-methyltransferase (Rattus norvegicus) (protein)
chain: MPLAAVSLGLLLLALLLLLRHLGWGLVTIFWFEYVLQPVHNLIMGDTKEQRILRYVQQNAKPGDPQSVLEAIDTYCTQKEWAMNVGDAKGQIMDAVIREYSPSLVLELGAYCGYSAVRMARLLQPGARLLTMEMNPDYAAITQQMLNFAGLQDKVTILNGASQDLIPQLKKKYDVDTLDMVFLDHWKDRYLPDTLLLEKCGLLRKGTVLLADNVIVPGTPDFLAYVRGSSSFECTHYSSYLEYMKVVDGLEKAIYQGPSSPDKS
**Q.** B4 was tested. Which Km [8] did it give?
**A.** Its Km is 7.7 µM.

**Q.** And the Vmax [8]?
**A.** Its Vmax is 0.0032 µmol/min.

**Q.** What about the Km [9] of the same protein?
**A.** The Km was 9.2 µM.

**Q.** What about the Vmax [9] of the same protein?
**A.** The Vmax was 0.0033 µmol/min.

**Q.** And the Km [10]?
**A.** The Km was 5.5 µM.

**Q.** What about the Vmax [10] of the same protein?
**A.** Its Vmax is 0.0024 µmol/min.

B5: Cytochrome P450 2C9 (Homo sapiens) (protein)
chain: MDSLVVLVLCLSCLLLLSLWRQSSGRGKLPPGPTPLPVIGNILQIGIKDISKSLTNLSKVYGPVFTLYFGLKPIVVLHGYEAVKEALIDLGEEFSGRGIFPLAERANRGFGIVFSNGKKWKEIRRFSLMTLRNFGMGKRSIEDRVQEEARCLVEELRKTKASPCDPTFILGCAPCNVICSIIFHKRFDYKDQQFLNLMEKLNENIKILSSPWIQICNNFSPIIDYFPGTHNKLLKNVAFMKSYILEKVKEHQESMDMNNPQDFIDCFLMKMEKEKHNQPSEFTIESLENTAVDLFGAGTETTSTTLRYALLLLLKHPEVTAKVQEEIERVIGRNRSPCMQDRSHMPYTDAVVHEVQRYIDLLPTSLPHAVTCDIKFRNYLIPKGTTILISLTSVLHDNKEFPNPEMFDPHHFLDEGGNFKKSKYFMPFSAGKRICVGEALAGMELFLFLTSILQNFNLKSLVDPKNLDTTPVVNGFASVPPFYQLCFIPV
**Q.** How did the Km [11] turn out when B5 was run?
**A.** The Km was 5.4 µM.

**Q.** And the kcat [11]?
**A.** Its kcat is 0.0517 s⁻¹.

**Q.** And the kcat/Km [11]?
**A.** The kcat/Km was 9500 M⁻¹ s⁻¹.
